The supplement of paper PMC10724198
± gives the standard deviation of the averaged measurements.

test system: Saccharomyces cerevisiae; test: protein stability index of tFT-peptide fusion (C-terminal peptide) (PSI (0-1 scale)); higher = more stable (slower turnover); details: genetic background: wild type; temperature: 30 C
Procedure: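 Multiplexed protein stability (MPS) profiling in S. cerevisiae. Random 12-aa peptides (tFT-X12 library) are fused to the C-terminus of a sfGFP-mCherry tandem fluorescent timer, after mCherry and a GGGS linker. Cells are FACS-sorted into 8 mCherry/sfGFP bins and deep-sequenced. The protein stability index (PSI) is the read-weighted bin average, scaled from 0 (unstable) to 1 (stable). Only peptides with >10 reads are reported; cells were grown at 30 °C in SC-His with glucose.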
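Further: PSI is a weighted mean of sequencing reads over stability bins, variants kept only with over 10 reads, mCherry proximal and sfGFP distal, peptide attached via GGGS linker.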

Row | Sequence | protein stability index
1 | SPPPLNTFPPLP | 0.691 ± 0.025
2 | FSGSSCSSPFCF | 0.632 ± 0.033
3 | DPVGFSEMYLRV | 0.705 ± 0.0078
4 | SSRVSLSTVCLL | 0.585 ± 0.019
5 | PATPSPLSSSAP | 0.711 ± 0.039
6 | PHPPPPHPPPPP | 0.644 ± 0.027
7 | SLPLVLHGHRLY | 0.672 ± 0.027
8 | SSGRRFVVVVQG | 0.572 ± 0.026
9 | ARGARTCDLIRW | 0.717 ± 0.035
10 | APRFLGLLCPLL | 0.655 ± 0.0089
11 | PPPPRPPHLSPP | 0.7006 ± 0.0067
12 | SLPPAHPPPPRP | 0.693 ± 0.026
13 | TTSRADKEPFRL | 0.675 ± 0.027
14 | PPRRSDSQQFSA | 0.676 ± 0.029
15 | SPSSFVTFVVLE | 0.652 ± 0.098
16 | NGGFIGVYICRT | 0.73 ± 0.13
17 | PSCALAFRSEPH | 0.741 ± 0.018
18 | GRTEMNRIETTS | 0.699 ± 0.037
19 | HRCPSPPWFHPS | 0.752 ± 0.071
20 | NLARPTRTFAGV | 0.684 ± 0.013
21 | IPRERPAEHYGG | 0.6473 ± 0.0018
22 | SFARMTAIPGLR | 0.661 ± 0.029
23 | PPPLRAPPLSLP | 0.62 ± 0.0068
24 | RARPGKATSAFH | 0.73 ± 0.019
25 | RRIVAPYSGEAA | 0.774 ± 0.013

Row | Sequence | protein stability index
26 | RKKRGKNEERQD | 0.707 ± 0.056
27 | KVWQISEVGAGY | 0.617 ± 0.024
28 | RCWVTVIRSVRS | 0.601 ± 0.067
29 | PLPPPSASPLPP | 0.539 ± 0.044
30 | VGVGGVGRRAKI | 0.687 ± 0.075
31 | RTQRGRMVGEQG | 0.732 ± 0.11
32 | LFGIGFFSFICS | 0.537 ± 0.074
33 | CYAVEACWASCA | 0.597 ± 0.0087
34 | LTFSVQCVYFDS | 0.571
35 | PPPLHPRYDPPA | 0.685 ± 0.025
36 | ESLFFPFAFSSV | 0.809 ± 0.13
37 | AWRGFVALSFSR | 0.695 ± 0.049
38 | GMVEVSTKTKRR | 0.719 ± 0.0092
39 | CSGLTLLRFFVW | 0.654 ± 0.064
40 | SGVLSLVDVWTG | 0.747 ± 0.1
41 | PPLPPLPLAPPY | 0.6927 ± 0.005
42 | QMTCADGVDCLL | 0.589 ± 0.018
43 | QFVSALVCLSVG | 0.5534 ± 0.0015
44 | RHPSAPRPVPLM | 0.695 ± 0.11
45 | WSSLSCACVVPF | 0.726 ± 0.065
46 | FFPLPPSSPPSP | 0.7184 ± 0.0069
47 | ASGSLGQIFSGL | 0.699 ± 0.026
48 | KIIKNKIKKHNK | 0.626 ± 0.018
49 | GISGGTVSILGV | 0.704 ± 0.0096
50 | SLVLPPRPFPPF | 0.746 ± 0.058

Row | Sequence | protein stability index
51 | GGIRGITSRQPP | 0.576 ± 0.019
52 | TSSWGGLVASLR | 0.74 ± 0.04
53 | AVRELIRASGPG | 0.642 ± 0.043
54 | QSTGDFAVRQSF | 0.753 ± 0.093
55 | LGSGGLMEPWCG | 0.644 ± 0.11
56 | VASVWGVGFVAS | 0.694 ± 0.058
57 | AGHGTHSNSPFA | 0.693 ± 0.074
58 | GGGGGSRGVCLG | 0.656 ± 0.063
59 | RPDSPSPLPPPP | 0.637 ± 0.028
60 | CAWRSVRLLIAH | 0.506 ± 0.068
61 | SARDQGISCAEC | 0.674 ± 0.04
62 | PPPPPHTPPPYP | 0.766 ± 0.05
63 | RCGRSVSCLATG | 0.696 ± 0.042
64 | SSPGFCRVFVFF | 0.491 ± 0.018
65 | DSFGSERYEPCK | 0.622 ± 0.0097
66 | GVGRGGSSRWLG | 0.646 ± 0.06
67 | FPLPLCHSPAPP | 0.606 ± 0.027
68 | VLGSSSKLGSLS | 0.647 ± 0.025
69 | LVLLPLPLPLFP | 0.578 ± 0.015
70 | RPELRRETARVR | 0.644 ± 0.038
71 | AVSTYGAQAWNH | 0.704 ± 0.018
72 | PLPRPVLPPLFS | 0.739 ± 0.073
73 | GVSCIAEGRGGL | 0.668 ± 0.025
74 | FLFLYIPFSPPR | 0.62 ± 0.02
75 | PPPPPPPTPIHP | 0.72 ± 0.01

Row | Sequence | protein stability index
76 | RTQGVWYHGVRR | 0.745 ± 0.071
77 | GSCTVLPPPGPP | 0.724 ± 0.018
78 | AAYGCSGGEVGW | 0.68 ± 0.025
79 | AGGKRGGDGRWQ | 0.668 ± 0.014
80 | PFLHPSSPPSPT | 0.698 ± 0.036
81 | GDTVLLCDLASC | 0.687 ± 0.0092
82 | SPLPLFSPCPPP | 0.693 ± 0.014
83 | LGGRNNRQMSSG | 0.678 ± 0.11
84 | SLPRPPPPASTP | 0.623 ± 0.0068
85 | EGMENECDLRIK | 0.74 ± 0.066
86 | LYFGVGSICLVS | 0.649 ± 0.043
87 | CWGVGGRTVING | 0.671 ± 0.049
88 | RILSFVSCYSLL | 0.506 ± 0.0035
89 | PHRSVSRLTILS | 0.658 ± 0.012
90 | RGCGGGTGDGRG | 0.697 ± 0.045
91 | LVGLNNSFVSKA | 0.6448 ± 0.0039
92 | WVESGGGCVGRI | 0.706 ± 0.039
93 | PPVKQKEKGTAT | 0.701 ± 0.021
94 | NKKIKKDKIKGK | 0.692 ± 0.031
95 | GDGGGCWSGVGW | 0.643 ± 0.1
96 | FPVTAPPRPFLF | 0.639 ± 0.014
97 | ARRPHSPLCTTR | 0.7101 ± 0.00075
98 | NYKFENQIAKPP | 0.655 ± 0.077
99 | GRGFGVILGGCS | 0.692 ± 0.02
100 | LPLSGIETSVSR | 0.683 ± 0.03

Row | Sequence | protein stability index
101 | PLQPPHSPPFPP | 0.7 ± 0.028
102 | GPLVQVTSYSRY | 0.691 ± 0.0077
103 | KRYRLRVKIGNT | 0.5291 ± 0.0046
104 | SALRWPRPVLRV | 0.619 ± 0.017
105 | KKKKKKKKEKKK | 0.726 ± 0.041
106 | AVFYGRWRGVWE | 0.859 ± 0.12
107 | WKETGRGTISHK | 0.699 ± 0.013
108 | ERRKKKRGQETQ | 0.655 ± 0.12
109 | IVGGDSVSALRG | 0.643 ± 0.022
110 | YLFSTGSTLHSH | 0.818 ± 0.088
111 | RRRGRGAVGATR | 0.716 ± 0.073
112 | NQPSHPRPHAER | 0.666 ± 0.045
113 | VPLRPFFPTLFP | 0.712 ± 0.063
114 | VVLFHGLGFCHN | 0.627 ± 0.072
115 | GRPYPPHFQHPS | 0.773 ± 0.022
116 | KKKKKHKKPIES | 0.666 ± 0.022
117 | RVTLWDGSRSRI | 0.711 ± 0.017
118 | EVGHLILYKIGC | 0.648 ± 0.017
119 | GERKRQQRKREE | 0.707 ± 0.064
120 | RGVGGREGAAPV | 0.691 ± 0.0093
121 | DVGISICLLHGA | 0.6664 ± 0.002
122 | GCCGGRLWEGGG | 0.707 ± 0.013
123 | SLGLHADLLSRT | 0.672 ± 0.064
124 | PPPPPSPPLSPI | 0.728 ± 0.063
125 | SVTLVPPPLPFP | 0.677 ± 0.054

Row | Sequence | protein stability index
126 | VHFECFLVPFLL | 0.525 ± 0.028
127 | EQSERINKKARK | 0.67 ± 0.063
128 | PLTSIDTDPPHI | 0.723 ± 0.022
129 | VGEGSGEWKFLD | 0.809 ± 0.06
130 | WGSSCQAEDVTN | 0.737 ± 0.016
131 | PPPPPPTPPPCL | 0.694 ± 0.057
132 | LPPPLPPATPPP | 0.675 ± 0.16
133 | AGAIWGGDSGVG | 0.607 ± 0.047
134 | GRGCRGKDWWLW | 0.74 ± 0.055
135 | KRRNKTNREDTM | 0.68 ± 0.052
136 | GGLIWRHGVGRG | 0.692 ± 0.018
137 | EAKKKKRRDRKE | 0.621 ± 0.029
138 | SPPHSLSSSCSL | 0.811 ± 0.05
139 | PPILHPPPDIPG | 0.701 ± 0.042
140 | GCRGWRSVGRGR | 0.644 ± 0.025
141 | TLQRARTGSTPK | 0.684 ± 0.055
142 | CPPPPPPPASPH | 0.698 ± 0.074
143 | AVLKDFDTKHLY | 0.613 ± 0.024
144 | HTDSKVVILFVP | 0.592 ± 0.014
145 | PVPPTPPHPGPL | 0.617 ± 0.059
146 | PPPPRPPRPYSV | 0.767 ± 0.27
